# Measured values taken from patent US20250270309A1 (Eli Lilly, published 2025).
# T1: human IL-19 (human, UniProt Q9UHD0 25-177)
# T1 construct: Recombinant; also called recombinant human IL-19; biotinylated human IL-19
# T1 sequence: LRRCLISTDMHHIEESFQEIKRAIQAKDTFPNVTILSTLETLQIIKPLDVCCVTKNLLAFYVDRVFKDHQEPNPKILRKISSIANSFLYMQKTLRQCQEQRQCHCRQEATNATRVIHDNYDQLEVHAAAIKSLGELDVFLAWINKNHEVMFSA
# T2: cyno IL-19 (cyno)
# T2 chain: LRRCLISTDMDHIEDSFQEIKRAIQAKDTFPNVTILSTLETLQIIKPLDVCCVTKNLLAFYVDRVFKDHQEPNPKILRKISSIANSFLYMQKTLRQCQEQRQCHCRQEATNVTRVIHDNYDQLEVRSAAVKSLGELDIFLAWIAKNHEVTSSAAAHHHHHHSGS
# T3: mouse IL-19 (mouse, UniProt Q8CJ70 25-176, limits assumed)
# T3 construct: Used as immunogen and for panning; in the in-house ELISA it is the IL-19 secreted in mouse ear cultures; also called murine IL-19
# T3 sequence (looked up): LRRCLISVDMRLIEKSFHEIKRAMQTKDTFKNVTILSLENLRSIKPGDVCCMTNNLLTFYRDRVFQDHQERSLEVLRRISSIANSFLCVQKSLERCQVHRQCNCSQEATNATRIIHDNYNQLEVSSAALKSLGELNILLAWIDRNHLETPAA
# B1: Ab1 (antibody, human IgG4 S228P, kappa, F234A L235A, V domains shown)
# VH: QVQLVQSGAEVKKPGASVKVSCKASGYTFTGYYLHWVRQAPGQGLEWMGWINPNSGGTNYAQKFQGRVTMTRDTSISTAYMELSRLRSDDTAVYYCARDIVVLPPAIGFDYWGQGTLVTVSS
# VL: AIQLTQSPSSLSASVGDRVTITCRASQDIRSDFGWYQQKPGKAPKLLIYAASSLQSGVPSRFSGSGSGTDFTLTISSLQPEDFATYYCLQDYNYPWTFGQGTKVEIKR
# notes: Anti-human IL-19 antibody; Detected with anti-human IgG4 reagents in the PK ELISA, so IgG4; also called mAb 1; mAb1
# B2: Ab2 (antibody, human IgG4 S228P, kappa, F234A L235A, V domains shown)
# VH: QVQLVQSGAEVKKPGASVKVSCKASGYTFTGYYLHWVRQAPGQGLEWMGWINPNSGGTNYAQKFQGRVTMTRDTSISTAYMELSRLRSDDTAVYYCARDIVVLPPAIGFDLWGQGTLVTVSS
# VL: AIQLTQSPSSLSASVGDRVTITCRASQDIRSDFGWYQQKPGKAPKLLIYAASSLQSGVPSRFSGSGSGTDFTLTISSLQPEDFATYYCLQDYNYPWTFGQGTKVEIKR
# notes: Anti-human IL-19 antibody; also called mAb 2; mAb2
# B3: anti-murine IL-19 Ab mAb 3 (antibody, V domains shown)
# VH: QQLEESGGGLAKPEGSLTLTCKTSGFDLSSTYYMSWVRQAPGKGLEWIASIVTSGRSGASYYANWAKGRFTISKTSSTTVTLQMTSLAAADTASYFCVRDLPAPTDDRGLWGPGTLVVVSS
# VL: AQVLTQTPSSVSEPVGGTVTINCQASESVYNKNWLSWFQQKPGQPPKLLIYDSSDLASGVPSRFKGSGSGTHFTLTISDVQCGDAATYYCGGSYTDTYVFGGGTEVVVK
# notes: also called anti-murine IL-19 Ab3
# B4: anti-murine IL-19 Ab mAb4 (antibody, V domains shown)
# VH: QEQLKESGGGLVQPGGSLKLSCKASGFPLSSYGFSWVRQAPGKGLEWIGYLDPVFGSTLSAHTVNGRLTISSDNAQNTLYLQLNSLTAADTATYFCARGIGYVYYGYTYDLWGPGTLVTVSS
# VL: DIVMTQTPASVEAAVGGTVTIKCSASASIYEYLSWYQQKPGQRPKLLIYGASVLTDGVSSRFKGSGSGTEFTLTISDLEAADAATYYCQSYNDGSSSGDAHVFGGGTEVVVK
# notes: also called anti-murine IL-19 Ab4
# Tests used:
# human IL-19 [1] = target: T1, human IL-19; test: MSD-SET solution equilibrium titration, 10 pM fixed biotinylated human IL-19, 37 C, mean of 3 experiments
# Text: A Meso Scale Discovery Solution Equilibrium Titration (MSD-SET) assay, measured with a SECTOR® Imager 6000 (Meso Scale Diagnostics), is used to assess binding of exemplified IL-19 antibodies of the present invention to biotinylated human IL-19 (having the amino acid sequence set for in SEQ ID NO: 1).
# Except as noted, all the reagents and materials are from Meso Scale Diagnostics (Rockville, Maryland). Recombinant human IL-19 reagents are biotinylated using the EZ-link sulfo-NHS-Biotin kit (Thermo Cat #A39257). Briefly, 20 pM biotinylated human IL-19 is mixed in a 1:1 ratio with a 3-fold dilution series of exemplified antibody samples of the present invention (mAb 1 and mAb 2) to give a final concentration of: 10 pM biotinylated human IL-19 and a 11-point 3-fold antibody gradient from 1 nM to 0.017 pM. The mix is incubated at 37° C. for 72 hrs. […] After washing three times with wash buffer, 150 μL of 1× Read Buffer T (Cat. #R92TC-1) is added to the well and analyzed on a SECTOR® Imager 6000 (Meso Scale Diagnostics) 5 min after buffer addition. […]
# The equilibrium KD is determined by fitting a sigmoidal curve to the electrochemiluminescence (ECL) response vs. log (IL-19 concentration) using assay development tool kit graphed with normalized ECL values.
# human IL-19 [2] = target: T1, human IL-19; test: cell-based or functional assay
# cyno IL-19 [3] = target: T2, cyno IL-19; test: cell-based or functional assay
# human IL-19 [4] = target: T1, human IL-19; test: cell-based or functional assay; remark: listed apart in the source
# cyno IL-19 [5] = target: T2, cyno IL-19; test: cell-based or functional assay
# mouse IL-19 = target: T3, mouse IL-19; test: yeast surface display of single-chain Fab library, panning with mouse IL-19
Binder,Kd (human IL-19 [1]),"IC50 with human IL-19 (IL-19 induced phospho-STAT3 signal, A431 cells) (human IL-19 [2])","IC50 with Cyno IL-19 (IL-19 induced phospho-STAT3 signal, A431 cells) (cyno IL-19 [3])","IC50 for human IL-19 (IL-19 induced IL20Ra/IL20Rb receptor dimerization signal, U2OS PathHunter cells) (human IL-19 [4])","IC50 for Cyno IL-19 (IL-19 induced IL20Ra/IL20Rb receptor dimerization signal, U2OS PathHunter cells) (cyno IL-19 [5])",binding result (mouse IL-19)
B1,0.0131 nM,2.31 nM,1.82 nM,3.46 nM,2.79 nM,
B2,0.0068 nM,2.21 nM,1.84 nM,3.47 nM,2.87 nM,
B3,,,,,,binds
B4,,,,,,binds
